Assay results from patent publication US20250215403A1, “Compositions and Methods for Cardiac Tissue Regeneration” (Temple University - Of The Commonwealth System Of Higher …, priority 2022, published 2025).

Legend:
[1] = tested on: β-catenin; test: β-catenin immunostaining in CM nucleus and cytoplasm; assay type: cell-based, rat; details: NRVM; 48 hours after modRNA
Protocol: Mice hearts were harvested, weighed, and fixed in 4% PFA/PBS overnight on shaker and then washed with PBS for 1 hour and incubated in 30% sucrose/PBS at 4° C. for 12-18 hours. Hearts were then fixed in OCT and frozen at −80° C. (Magadum A., et al., Circulation. 2020, 141 (15): 1249-1265). Transverse heart sections (6-8 μm) were made using a cryostat. Frozen sections were rehydrated in PBS for 5-10 min followed by permeabilization with PBS with 0.1% Triton™ X100 (PBST) for 7-8 min. Heart sections were then treated with 3% H2O2 for 5 min and washed (3×5 min) with PBST. The samples were then blocked with PBS+10% Donkey normal serum+0.1% Triton™ X100 (PBSST) for 1 hour at room temperature. Primary antibodies (see complete list of primary antibodies used for this Example in Table 2 below) diluted in PBST were added and incubated overnight at 4° C. […] For immunostaining with wheat germ agglutinin (WGA) for CM size quantification, images were captured at 40× magnification, and ImageJ was used to determine the area of each cell. Quantitative analyses involved counting of multiple fields from 5-8 mouse hearts per group, and 3-4 sections/heart (˜50 cells per field assessed, for a total ˜250 cells per sample). […] BrdU positive CMs were counted in multiple fields from three independent samples per group and 3 sections/heart. The total number of CMs counted was ˜1-1.5×10^3 CMs per section. […]

[2] = tested on: serine synthesis pathway (SSP); test: 13C glucose isotopic tracer metabolic flux analysis in neonatal rat CMs; assay type: cell-based
Protocol: P3 neonatal rat CMs (2×10^6) were cultured in DMEM and transfected with Luc or PSAT1 modRNA. After 6 hours medium was changed with ^13C glucose-containing DMEM. Samples were collected at 10 min, 2 hours and 18 hours by flash freezing the cell culture plates using liquid nitrogen and stored at −80° C. Metabolites were extracted from cells using 80% methanol (Magadum A., et al., Circulation. 2020, 141 (15): 1249-1265). Targeted LC/MS analyses were performed on a Q Exactive Orbitrap mass spectrometer (Thermo Scientific) coupled to a Vanquish UPLC system (Thermo Scientific). The Q Exactive was operated in polarity-switching mode. A Sequant ZIC-HILIC column (2.1 mm i.d.×150 mm, Merck) was used for separation of metabolites with a flow rate was 150 μL/min. […] Relative metabolite quantitation was performed based on peak area for each metabolite. All data analyses were done using scripts written in house (Metabolomics Facility, Biotechnology Resource Center, Cornell University).

[3] = tested on: cell cycle markers; test: qPCR of cell-cycle-promoting genes and cell-cycle inhibitors in heart post-MI; assay type: in vivo, mouse; details: 2 days post-MI; compared to Luc modRNA
Protocol: Total RNA was isolated using TRIzol™ RNA isolation and RNeasy® (Qiagen) then reverse transcribed with High-Capacity cDNA Reverse Transcription Kit (Applied Biosystems), according to the manufacturer's instructions. Real-time qPCR analyses were performed on a StepOnePlus™ Real-Time PCR System using SYBR™ Green (Applied Biosystems). The primer sequences were synthesized by IDT (see Table 4 below). Data were normalized to 18s expression, where appropriate (endogenous controls). Fold-changes in gene expression were determined by the […] method and were presented relative to an internal control.

[4] = tested on: PSAT1; test: PSAT1 protein expression in NRVM after modRNA transfection; assay type: cell-based, rat; details: in vitro modRNA transfection

B1: PSAT1 modRNA: modified mRNA with N1-methylpseudouridine, transcribed in vitro, encoding phosphoserine aminotransferase 1 (ORF SEQ ID NO: 1, RNA SEQ ID NO: 2) (nucleic acid)
chain: AUGGAAGCCACCAAGCAAGUGGUUAACUUUGGGCCCGGGCCUGCCAAGCUGCCACACUCGGUAUUGUUGGAGAUCCAGAAGCAGCUACUAGACUACAGAGGACUCGGCAUCAGUGUGCUCGAAAUGAGUCACAGGUCAUCAGAUUUUGCCAAGAUUAUUGGCAAUACAGAGAAUCUUGUGAGGGAAUUGCUAGCUGUUCCCAACAACUACAAGGUGAUCUUUGUACAAGGAGGUGGGUCUGGCCAGUUCAGUGCUGUCCCCUUAAAUCUGAUUGGCCUGAAAGCUGGAAGGAGUGCUGACUACGUGGUGACCGGAGCUUGGUCAGCUAAGGCUGCGGAAGAAGCCAAGAAGUUUGGAACGGUGAACAUUGUCCACCCUAAACUUGGAAGUUACACAAAAAUUCCAGACCCAAGCACCUGGAACCUCAACCCGGACGCCUCCUAUGUAUACUUCUGUGCAAACGAGACUGUGCACGGGGUGGAGUUUGACUUCGUACCUGACGUCAAGGGAGCGGUGCUGGUCUGUGACAUGUCCUCAAACUUCUUAUCCAGGCCGGUGGAUGUUUCCAAGUUUGGUGUGAUUUUCGCUGGUGCUCAGAAGAAUGUUGGCUCUGCCGGGGUGACGGUGGUGAUUGUCCGGGAUGACCUGCUGGGGUUCUCGCUCAGAGAGUGCCCAUCAGUCCUUGACUACAAAGUGCAGGCUGGGAACAACUCUUUGUAUAACACACCUCCGUGCUUCAGCAUCUACGUCAUGGGCAUGGUCCUGGAAUGGAUCAAGAACAACGGCGGGGCCGCAGCCAUGGAGAAGCUCAGCUCCAUCAAAUCCCAAAUGAUUUAUGAGAUCAUUGAUAAUUCUCAAGGAUUUUAUGUAUGCCCAGUGGAGCGCCAGAAUAGAAGCAGGAUGAACAUCCCAUUUCGCAUUGGCAACGCCAAAGGAGACGAAGCUUUGGAAAAGCGGUUUCUUGACAAGGCGGUAGAACUCAACAUGAUCUCCUUGAAGGGGCACAGGUCAGUGGGAGGCAUUCGUGCCUCUCUGUAUAACGCUGUCACAACCGAAGACGUUGAGAAGCUGGCGGCCUUCAUGAAGAAUUUCUUGGAGAUGCAUCAGCUGUGA
modifications: N1-methylpseudouridine
- stabilized β-catenin localisation to CM nuclei [1]: translocated
- β-catenin stabilization [1]: significantly induced
- glutathione levels ([2]; 13C glucose flux): Increased
- purines AMP and GMP levels ([2]; 13C glucose flux): increased
- TCA cycle intermediates ([2]; 13C glucose, vs Luc modRNA): Increased levels
- metabolites involved in the serine synthesis pathway (SSP), including phosphoserine, serine, and glycine ([2]; 13C glucose, vs Luc modRNA): significant elevation
- expression of positive cell cycle markers [3]: induced
- negative regulators of cell cycle markers [3]: inhibiting
- PSAT1 protein expression in NRVM (onset and duration) [4]: achieved within hours of administration and lasted up to several days
